From patent publication US20030165463 come the findings set out here.

In this data set the target is Cre recombinase (Bacteriophage P1?) (UniProt P06956). In words: cell_activity. The following applies: pCA36 + pBHGloxΔE1,3 in 293Cre4 cells; 15 in 293 cells, homologous recombination background only.
Sequence of UniProt P06956 (P06956 whole entry): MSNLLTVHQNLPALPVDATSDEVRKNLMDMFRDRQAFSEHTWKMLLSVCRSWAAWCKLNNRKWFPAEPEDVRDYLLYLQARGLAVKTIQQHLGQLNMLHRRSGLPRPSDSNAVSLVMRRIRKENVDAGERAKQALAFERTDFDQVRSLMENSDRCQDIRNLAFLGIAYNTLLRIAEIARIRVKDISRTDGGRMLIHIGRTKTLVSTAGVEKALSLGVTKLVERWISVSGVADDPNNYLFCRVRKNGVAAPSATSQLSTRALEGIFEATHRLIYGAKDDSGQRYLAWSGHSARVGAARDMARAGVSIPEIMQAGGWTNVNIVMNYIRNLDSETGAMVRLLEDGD

Regarding shuttle plasmid pCA36 without loxP, the activity (total plaques in 6 dishes) amounted to 10.
